Tests used:
(Biotin-CCIZN23)3 [1] = test: BIAcore SPR; (biotin-CCIZN23)3 immobilized on SA chip, D5-scFv in solution
[2] = molecular target: HIV-1 gp41 (strain 89.6) (HIV-1 strain 89.6); test: cell-based or functional assay
[3] = molecular target: HIV-1 gp41 (strain HXB2) (HIV-1 strain HXB2) (UniProt P04578); test: cell-based or functional assay
[4] = molecular target: HIV-1 gp41 (strain BaL) (HIV-1 strain BaL); test: cell-based or functional assay
D5 IgG = test: AlphaScreen competition: peptide titrated against the binding of D5-IgG to biotinylated-IQN17
Biotin-IZN36 = test: BIAcore SPR; D5 IgG immobilized on CM5 chip, biotin-IZN36 in solution
(Biotin-CCIZN23)3 [5] = test: BIAcore SPR; D5 IgG immobilized on CM5 chip, (biotin-CCIZN23)3 in solution
[6] = molecular target: HIV-1 gp41 (strain MN-1) (HIV-1 strain MN-1) (UniProt P05877); test: cell-based or functional assay
[7] = molecular target: HIV-1 gp41 (strain NL4-3) (HIV-1 strain NL4-3); test: cell-based or functional assay

Substance	IC50, single-cycle HIV infectivity assay [2] [nM]	IC50, single-cycle HIV infectivity assay [3] [nM]	IC50, single-cycle HIV infectivity assay [4] [nM]	IC50 (read off the curve) (D5 IgG) [nM]	further results
D5-scFv	–	–	–	–	Kd ((Biotin-CCIZN23)3 [1]): 0.2 nM
T-20 (peptide)	29	5.3	2.4	–	–
IZN17 Q567R (peptide)	–	–	–	10	–
D5 IgG (antibody)	1750	310	93	–	Kd (Biotin-IZN36): 0.17 nM; Kd ((Biotin-CCIZN23)3 [5]): 0.22 nM; IC50, HIV single cycle infectivity assay, HIV-HXB2 [3]: 1.35 µM; IC50, HIV-1 single-cycle infectivity assay, strain HXB2 (FIG. 17A) [3]: 144 µg/mL; IC50, single-cycle HIV infectivity assay [6]: 393 nM; IC50, single-cycle HIV infectivity assay [7]: 226 nM
IZN17 L565M (peptide)	–	–	–	10	–
